Reference: patent US20220025023A1 (AC IMMUNE, published 2022)
Changes are numbered by the printed parent chain. Values belong to the binder of their own block, whether it stands above or below them. Where no end group is shown, it is not given here.

Key:
TDP-210 peptide = target: T1, TDP-210 peptide (human); assay: indirect ELISA, 8-mer peptide library
T1 construct: 8-mer of human TDP-43; same ELISA method as for the biotinylated 15-mers
T1 peptide: FFSQYGDV
Description: (§1) Serum-free supernatants were harvested from stable hybridomas. The supernatants containing antibodies of interest were then screened by an indirect ELISA assay to determine epitopes. Epitopes were mapped using a library of TDP-43 15-mer peptides. Briefly, 96-well streptavidin-coated 96-well ELISA plates were incubated with 5 μg/mL of biotinylated 15-mer peptides spanning the amino acids (aa) 199-285 of human TDP-43 with 9 aa offset and 6 aa overlap. Plates were washed thoroughly with 0.05% Tween-20/PBS and then blocked with 1% bovine serum albumin (BSA) in 0.05% Tween-20/PBS for 1 hour at 37° C. The antibody contained in the hybridoma supernatant was then added at the indicated dilutions, and incubated for 2 hours at 37° C. after which the plates were washed as described previously. An AP-conjugated anti-mouse IgG secondary antibody (Jackson ImmunoResearch Laboratories, United Kingdom) was added at 1/1000 dilution in 0.05% Tween-20/PBS for 1 hour at 37° C. After the final wash, plates were incubated with pNPP (Sigma-Aldrich, Switzerland) an AP substrate solution, and read at 405 nm using an ELISA plate reader (Tecan).
(§2) Furthermore, antibodies were tested using an indirect ELISA on a peptide library of 8-mer peptides with 7 aa overlap covering the sequence of human TDP-43 from aa 210 to aa 231, using the same ELISA method as describe previously in this section.

TDP-211 peptide = target: T2, TDP-211 peptide (human); assay: indirect ELISA, 8-mer peptide library
T2 construct: 8-mer of human TDP-43; same ELISA method as for the biotinylated 15-mers
T2 peptide: FSQYGDVM
Description: as §1, §2

TDP-212 peptide = target: T3, TDP-212 peptide (human); assay: indirect ELISA, 8-mer peptide library
T3 construct: 8-mer of human TDP-43; same ELISA method as for the biotinylated 15-mers
T3 peptide: SQYGDVMD
Description: as §1, §2

TDP-213 peptide = target: T4, TDP-213 peptide (human); assay: indirect ELISA, 8-mer peptide library
T4 construct: 8-mer of human TDP-43; same ELISA method as for the biotinylated 15-mers
T4 peptide: QYGDVMDV
Description: as §1, §2

TDP-214 peptide = target: T5, TDP-214 peptide (human); assay: indirect ELISA, 8-mer peptide library
T5 construct: 8-mer of human TDP-43; same ELISA method as for the biotinylated 15-mers
T5 peptide: YGDVMDVF
Description: as §1, §2

TDP-217 peptide = target: T6, TDP-217 peptide (human); assay: indirect ELISA, 8-mer peptide library
T6 construct: 8-mer of human TDP-43; same ELISA method as for the biotinylated 15-mers
T6 peptide: VMDVFIPK
Description: as §1, §2

TDP-218 peptide = target: T7, TDP-218 peptide (human); assay: indirect ELISA, 8-mer peptide library
T7 construct: 8-mer of human TDP-43; same ELISA method as for the biotinylated 15-mers
T7 peptide: MDVFIPKP
Description: as §1, §2

TDP-219 peptide = target: T8, TDP-219 peptide (human); assay: indirect ELISA, 8-mer peptide library
T8 construct: 8-mer of human TDP-43; same ELISA method as for the biotinylated 15-mers
T8 peptide: DVFIPKPF
Description: as §1, §2

TDP-220 peptide = target: T9, TDP-220 peptide (human); assay: indirect ELISA, 8-mer peptide library
T9 construct: 8-mer of human TDP-43; same ELISA method as for the biotinylated 15-mers
T9 peptide: VFIPKPFR
Description: as §1, §2

TDP-221 peptide = target: T10, TDP-221 peptide (human); assay: indirect ELISA, 8-mer peptide library
T10 construct: 8-mer of human TDP-43; same ELISA method as for the biotinylated 15-mers
T10 peptide: FIPKPFRA
Description: as §1, §2

TDP-222 peptide = target: T11, TDP-222 peptide (human); assay: indirect ELISA, 8-mer peptide library
T11 construct: 8-mer of human TDP-43; same ELISA method as for the biotinylated 15-mers
T11 peptide: IPKPFRAF
Description: as §1, §2

TDP-223 peptide = target: T12, TDP-223 peptide (human); assay: indirect ELISA, 8-mer peptide library
T12 construct: 8-mer of human TDP-43; same ELISA method as for the biotinylated 15-mers
T12 peptide: PKPFRAFA
Description: as §1, §2

TDP-224 peptide = target: T13, TDP-224 peptide (human); assay: indirect ELISA, 8-mer peptide library
T13 construct: 8-mer of human TDP-43; same ELISA method as for the biotinylated 15-mers
T13 peptide: KPFRAFAF
Description: as §1, §2

TDP-215 peptide = target: T14, TDP-215 peptide (human); assay: indirect ELISA, 8-mer peptide library, OD 405 nm
T14 construct: same ELISA method as for the biotinylated 15-mers
T14 peptide: GDVMDVFI
Description: as §1, §2

TDP-3 peptide [1] = target: T15, TDP-3 peptide (human); assay: Luminex bead assay, serial dilution of the antibody, MFI
T15 construct: Irrelevant control peptide; conjugated to Luminex beads in the assay; also called TDP-43 aa 310-370; irrelevant target
T15 peptide: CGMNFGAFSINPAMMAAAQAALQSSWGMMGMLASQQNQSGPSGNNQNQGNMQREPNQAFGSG

TDP-1 peptide = target: T16, TDP-1 peptide (human); assay: Luminex bead assay, antibody serial dilution, TDP-1 peptide beads
T16 construct: Immunogen peptide; conjugated to Luminex beads in the assay; also called TDP-43 aa 212-272
T16 peptide: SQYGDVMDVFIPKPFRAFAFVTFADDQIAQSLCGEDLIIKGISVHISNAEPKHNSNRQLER

BSA = target: T17, BSA (bovine, UniProt P02769); assay: indirect ELISA, control coat in the 15-mer series, hybridoma supernatant
T17 construct: not specified; also called bovine serum albumin

TP-24 peptide = target: T18, TP-24 peptide (human, also: biotinylated, site not given here); assay: indirect ELISA, biotinylated 15-mer peptide on streptavidin plate, hybridoma supernatant
T18 construct: 15-mer of human TDP-43 from the library spanning aa 199-285; captured on streptavidin plates
T18 peptide: REFFSQYGDVMDVFI
Description: as §1

TP-25 peptide = target: T19, TP-25 peptide (human, also: biotinylated, site not given here); assay: as above
T19 construct: 15-mer of human TDP-43 from the library spanning aa 199-285; captured on streptavidin plates
T19 peptide: VMDVFIPKPFRAFAF
Description: as §1

TP-26 = target: T20, TP-26 (also: biotinylated, site not given here); assay: indirect ELISA, biotinylated 15-mer on streptavidin plate, hybridoma supernatant
T20 construct: also called TP-26 peptide
T20 peptide: FRAFAFVTFADDQIA
Description: as §1

TP-27 = target: T21, TP-27 (also: biotinylated, site not given here); assay: as above
T21 construct: also called TP-27 peptide
T21 peptide: ADDQIAQSLCGEDLI
Description: as §1

TP-28 = target: T22, TP-28 (also: biotinylated, site not given here); assay: as above
T22 construct: also called TP-28 peptide
T22 peptide: CGEDLIIKGISVHIS
Description: as §1

TP-29 = target: T23, TP-29 (also: biotinylated, site not given here); assay: as above
T23 construct: also called TP-29 peptide
T23 peptide: ISVHISNAEPKHNSN
Description: as §1

TP-30 = target: T24, TP-30 (also: biotinylated, site not given here); assay: as above
T24 construct: also called TP-30 peptide
T24 peptide: PKHNSNRQLERSGRF
Description: as §1

TP-31 = target: T25, TP-31 (also: biotinylated, site not given here); assay: as above
T25 construct: also called TP-31 peptide
T25 peptide: ERSGRFGGNPGGFGN
Description: as §1

TDP-3 peptide [2] = target: T15, TDP-3 peptide; assay: Luminex bead assay, TDP-3 peptide beads (irrelevant target)
[3] = target: T26, recombinant human full-length TDP-43 (human, UniProt Q13148 1-414); assay: Luminex bead assay, antibody serial dilution, FL TDP-43 beads
T26 construct: Recombinant full-length protein; also called FL TDP-43; recFL TDP-43

[4] = target: T26, recombinant human full-length TDP-43; assay: SPR avidity (Biacore T200), TDP-43 monomer immobilised, antibody as analyte, 1:1 model
Description: Avidity measurements were performed on an SPR instrument (Biacore T200, GE Healthcare Life Sciences) using CM5 Series S sensor chips. Recombinant human FL TDP-43 monomers or aggregated recombinant human FL TDP-43 was immobilized on a CM5 chip using amine coupling, injecting at a flow rate of 5 μl/min for 420 seconds. Conditions were optimized so that less than 200 RU protein was immobilized. Binding of the antibodies and the control antibody (2E2-D3) were obtained by injecting at: 1.37, 4.11, 12.33, 37, 111, and 333 nM in 1×PBS P+ at a flow rate of 50 μl/min for 90 s contact time and 600 s dissociation phase, with three regeneration cycles of the ligand surface by 10 mM Glycine-HCl (pH 1.7). Kinetics were analyzed using a 1:1 fitting model (see FIG. 8).

T17 sequence (P02769 25-607 limits assumed): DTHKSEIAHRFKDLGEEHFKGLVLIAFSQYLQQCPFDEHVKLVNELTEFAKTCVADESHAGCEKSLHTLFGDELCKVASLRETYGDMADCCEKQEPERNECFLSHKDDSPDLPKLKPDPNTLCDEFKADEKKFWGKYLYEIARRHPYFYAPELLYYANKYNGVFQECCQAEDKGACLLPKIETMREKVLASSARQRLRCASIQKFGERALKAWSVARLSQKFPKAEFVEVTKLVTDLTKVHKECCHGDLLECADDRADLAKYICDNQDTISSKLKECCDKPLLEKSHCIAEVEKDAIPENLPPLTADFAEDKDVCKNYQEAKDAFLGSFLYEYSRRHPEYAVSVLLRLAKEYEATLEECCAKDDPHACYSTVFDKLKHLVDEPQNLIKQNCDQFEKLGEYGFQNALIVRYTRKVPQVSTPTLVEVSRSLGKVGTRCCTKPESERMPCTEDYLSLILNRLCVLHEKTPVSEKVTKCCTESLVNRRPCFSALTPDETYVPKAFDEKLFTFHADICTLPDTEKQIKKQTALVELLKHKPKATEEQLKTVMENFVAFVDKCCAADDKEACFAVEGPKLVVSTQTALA
T26 sequence (Q13148 whole entry): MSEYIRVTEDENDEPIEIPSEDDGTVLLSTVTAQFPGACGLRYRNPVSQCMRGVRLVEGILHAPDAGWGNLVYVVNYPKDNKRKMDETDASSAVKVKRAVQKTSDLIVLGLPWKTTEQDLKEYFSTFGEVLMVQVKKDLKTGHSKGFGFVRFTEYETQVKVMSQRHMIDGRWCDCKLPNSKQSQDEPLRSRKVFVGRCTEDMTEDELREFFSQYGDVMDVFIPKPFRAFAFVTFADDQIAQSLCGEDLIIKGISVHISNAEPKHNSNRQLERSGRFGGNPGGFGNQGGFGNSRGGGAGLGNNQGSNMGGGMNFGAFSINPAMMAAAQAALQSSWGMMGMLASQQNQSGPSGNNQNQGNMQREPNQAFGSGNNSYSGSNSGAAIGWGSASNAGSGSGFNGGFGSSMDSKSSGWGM

binding result (TDP-210 peptide): no binding
binding result (TDP-211 peptide): no binding
binding result (TDP-212 peptide): no binding
binding result (TDP-213 peptide): no binding
binding result (TDP-214 peptide): no binding
binding result (TDP-217 peptide): no binding
binding result (TDP-218 peptide): no binding
binding result (TDP-219 peptide): no binding
binding result (TDP-220 peptide): no binding
binding result (TDP-221 peptide): no binding
binding result (TDP-222 peptide): no binding
binding result (TDP-223 peptide): no binding
binding result (TDP-224 peptide): no binding
binding result (TDP-215 peptide): binds
binding result (TDP-3 peptide [1]): no binding (tested: about 20000 pM)
EC50 (TDP-1 peptide): < 0.01 nM
binding result (BSA): no binding
OD (TP-24 peptide): 2.5 O.D. (405 nm)
OD (TP-25 peptide): 1 O.D. (405 nm)
binding result (TP-26): no binding
binding result (TP-27): no binding
binding result (TP-28): no binding
binding result (TP-29): no binding
binding result (TP-30): no binding
binding result (TP-31): no binding
B1: ACI-7062-401A2-Ab2 (antibody, IgG1, V domains shown)
VH: DVQLVESGGGLVQPGGSRRLSCAASGFTFSRFGMHWVRQAPEKGLEWVAYIRSGSDIIYYADSVKGRFTISRDNPENTLFLQMTSLRSEDTAMYYCARSGTTVPFDYWGQGTSLTVSS
VL: DIVMTQSPSSLAMSVGQKVTMSCKSSQSLLNSGDQKNYLAWYQQKPGQSPELLLYFASTRASGVPDRFIGSGSGTDFSLTISSVQAEDLADYFCQQHYSIPLTFGAGTKLELKR
notes: also called 401A2C6; clone 2

binding result (TDP-3 peptide [2]): no binding
EC50 [3]: 0.16 nM
EC50 (TDP-1 peptide): < 0.01 nM
binding result (BSA): no binding
Kd [4]: 1.1 nM
OD (TP-24 peptide): 3.9 O.D. (405 nm)
OD (TP-25 peptide): 1.2 O.D. (405 nm)
binding result (TP-26): no binding
binding result (TP-27): no binding
binding result (TP-28): no binding
binding result (TP-29): no binding
binding result (TP-30): no binding
binding result (TP-31): no binding
B2: ACI-7062-415H10-Ab2 (antibody, IgG3, V domains shown)
VH: B1 VH with R19K, R31S, R52S, D56S, I57N, A61T, S63T, E76K, M93I, S113T
VL: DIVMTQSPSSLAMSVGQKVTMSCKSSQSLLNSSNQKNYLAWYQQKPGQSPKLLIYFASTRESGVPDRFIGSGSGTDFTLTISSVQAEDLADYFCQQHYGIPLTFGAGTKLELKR
notes: also called 415H10B7; clone 17

binding result (TDP-3 peptide [1]): no binding (tested: about 20000 pM)
EC50 (TDP-1 peptide): < 0.01 nM
binding result (BSA): no binding
OD (TP-24 peptide): 4 O.D. (405 nm)
OD (TP-25 peptide): 0.9 O.D. (405 nm)
binding result (TP-26): no binding
binding result (TP-27): no binding
binding result (TP-29): no binding
binding result (TP-30): no binding
binding result (TP-31): no binding
B3: ACI-7062-404D6-Ab2 (antibody, IgG3, V domains shown)
VH: QVTLKESGPGILQPSQTLSLTCSFSGFSLSTYGIGVGWIRQPSGKGLEWLAHIWWNDYKYYNTALKSRLTISKDTSNNRVFLKIASVDTADTATYYCARVYGNLYYFDYWGQGTTLTVSS
VL: DVLMTQTPLSLPVSLGDQASISCRSSQSIVHGSGNTYLEWYLQKPGQSPKLLIYKVSNRFSGVPDRFSGSGSGTDFTLRISRVEAEDLGVYYCFQGSHVPTFGAGTKLELKR
notes: also called 404D6E11; clone 4
